Measured values: patent publication US11833164B2, “Methods of treating Fabry disease in patients having a mutation in the GLA gene” (Amicus Therapeutics, Inc., priority 2019, dated 2023)

B1: V124I (protein)
chain: MQLRNPELHLGCALALRFLALVSWDIPGARALDNGLARTPTMGWLHWERFMCNLDCQEEPDSCISEKLFMEMAELMVSEGWKDAGYEYLCIDDCWMAPQRDSEGRLQADPQRFPHGIRQLANYIHSKGLKLGIYADVGNKTCAGFPGSFGYYDIDAQTFADWGVDLLKFDGCYCDSLENLADGYKHMSLALNRTGRSIVYSCEWPLYMWPFQKPNYTEIRQYCNHWRNFADIDDSWKSIKSILDWTSFNQERIVDVAGPGGWNDPDMLVIGNFGLSWNQQVTQMALWAIMAAPLFMSNDLRHISPQAKALLQDKDVIAINQDPLGKQGYQLRQGDNFEVWERPLSGLAWAVAMINRQEIGGPRSYTIAVASLGKGVACNPACFITQLLPVKRKLGFYEWTSRLRSHINPTGTVLLQLENTMQMSLKDLL
B2: L129V (protein)
chain: MQLRNPELHLGCALALRFLALVSWDIPGARALDNGLARTPTMGWLHWERFMCNLDCQEEPDSCISEKLFMEMAELMVSEGWKDAGYEYLCIDDCWMAPQRDSEGRLQADPQRFPHGIRQLANYVHSKGVKLGIYADVGNKTCAGFPGSFGYYDIDAQTFADWGVDLLKFDGCYCDSLENLADGYKHMSLALNRTGRSIVYSCEWPLYMWPFQKPNYTEIRQYCNHWRNFADIDDSWKSIKSILDWTSFNQERIVDVAGPGGWNDPDMLVIGNFGLSWNQQVTQMALWAIMAAPLFMSNDLRHISPQAKALLQDKDVIAINQDPLGKQGYQLRQGDNFEVWERPLSGLAWAVAMINRQEIGGPRSYTIAVASLGKGVACNPACFITQLLPVKRKLGFYEWTSRLRSHINPTGTVLLQLENTMQMSLKDLL
B3: H125D (protein)
chain: MQLRNPELHLGCALALRFLALVSWDIPGARALDNGLARTPTMGWLHWERFMCNLDCQEEPDSCISEKLFMEMAELMVSEGWKDAGYEYLCIDDCWMAPQRDSEGRLQADPQRFPHGIRQLANYVDSKGLKLGIYADVGNKTCAGFPGSFGYYDIDAQTFADWGVDLLKFDGCYCDSLENLADGYKHMSLALNRTGRSIVYSCEWPLYMWPFQKPNYTEIRQYCNHWRNFADIDDSWKSIKSILDWTSFNQERIVDVAGPGGWNDPDMLVIGNFGLSWNQQVTQMALWAIMAAPLFMSNDLRHISPQAKALLQDKDVIAINQDPLGKQGYQLRQGDNFEVWERPLSGLAWAVAMINRQEIGGPRSYTIAVASLGKGVACNPACFITQLLPVKRKLGFYEWTSRLRSHINPTGTVLLQLENTMQMSLKDLL
B4: S126C (protein)
chain: MQLRNPELHLGCALALRFLALVSWDIPGARALDNGLARTPTMGWLHWERFMCNLDCQEEPDSCISEKLFMEMAELMVSEGWKDAGYEYLCIDDCWMAPQRDSEGRLQADPQRFPHGIRQLANYVHCKGLKLGIYADVGNKTCAGFPGSFGYYDIDAQTFADWGVDLLKFDGCYCDSLENLADGYKHMSLALNRTGRSIVYSCEWPLYMWPFQKPNYTEIRQYCNHWRNFADIDDSWKSIKSILDWTSFNQERIVDVAGPGGWNDPDMLVIGNFGLSWNQQVTQMALWAIMAAPLFMSNDLRHISPQAKALLQDKDVIAINQDPLGKQGYQLRQGDNFEVWERPLSGLAWAVAMINRQEIGGPRSYTIAVASLGKGVACNPACFITQLLPVKRKLGFYEWTSRLRSHINPTGTVLLQLENTMQMSLKDLL
B5: K127E (protein)
chain: MQLRNPELHLGCALALRFLALVSWDIPGARALDNGLARTPTMGWLHWERFMCNLDCQEEPDSCISEKLFMEMAELMVSEGWKDAGYEYLCIDDCWMAPQRDSEGRLQADPQRFPHGIRQLANYVHSEGLKLGIYADVGNKTCAGFPGSFGYYDIDAQTFADWGVDLLKFDGCYCDSLENLADGYKHMSLALNRTGRSIVYSCEWPLYMWPFQKPNYTEIRQYCNHWRNFADIDDSWKSIKSILDWTSFNQERIVDVAGPGGWNDPDMLVIGNFGLSWNQQVTQMALWAIMAAPLFMSNDLRHISPQAKALLQDKDVIAINQDPLGKQGYQLRQGDNFEVWERPLSGLAWAVAMINRQEIGGPRSYTIAVASLGKGVACNPACFITQLLPVKRKLGFYEWTSRLRSHINPTGTVLLQLENTMQMSLKDLL
B6: H125N (protein)
chain: MQLRNPELHLGCALALRFLALVSWDIPGARALDNGLARTPTMGWLHWERFMCNLDCQEEPDSCISEKLFMEMAELMVSEGWKDAGYEYLCIDDCWMAPQRDSEGRLQADPQRFPHGIRQLANYVNSKGLKLGIYADVGNKTCAGFPGSFGYYDIDAQTFADWGVDLLKFDGCYCDSLENLADGYKHMSLALNRTGRSIVYSCEWPLYMWPFQKPNYTEIRQYCNHWRNFADIDDSWKSIKSILDWTSFNQERIVDVAGPGGWNDPDMLVIGNFGLSWNQQVTQMALWAIMAAPLFMSNDLRHISPQAKALLQDKDVIAINQDPLGKQGYQLRQGDNFEVWERPLSGLAWAVAMINRQEIGGPRSYTIAVASLGKGVACNPACFITQLLPVKRKLGFYEWTSRLRSHINPTGTVLLQLENTMQMSLKDLL
B7: H125R (protein)
chain: MQLRNPELHLGCALALRFLALVSWDIPGARALDNGLARTPTMGWLHWERFMCNLDCQEEPDSCISEKLFMEMAELMVSEGWKDAGYEYLCIDDCWMAPQRDSEGRLQADPQRFPHGIRQLANYVRSKGLKLGIYADVGNKTCAGFPGSFGYYDIDAQTFADWGVDLLKFDGCYCDSLENLADGYKHMSLALNRTGRSIVYSCEWPLYMWPFQKPNYTEIRQYCNHWRNFADIDDSWKSIKSILDWTSFNQERIVDVAGPGGWNDPDMLVIGNFGLSWNQQVTQMALWAIMAAPLFMSNDLRHISPQAKALLQDKDVIAINQDPLGKQGYQLRQGDNFEVWERPLSGLAWAVAMINRQEIGGPRSYTIAVASLGKGVACNPACFITQLLPVKRKLGFYEWTSRLRSHINPTGTVLLQLENTMQMSLKDLL
B8: S126I (protein)
chain: MQLRNPELHLGCALALRFLALVSWDIPGARALDNGLARTPTMGWLHWERFMCNLDCQEEPDSCISEKLFMEMAELMVSEGWKDAGYEYLCIDDCWMAPQRDSEGRLQADPQRFPHGIRQLANYVHIKGLKLGIYADVGNKTCAGFPGSFGYYDIDAQTFADWGVDLLKFDGCYCDSLENLADGYKHMSLALNRTGRSIVYSCEWPLYMWPFQKPNYTEIRQYCNHWRNFADIDDSWKSIKSILDWTSFNQERIVDVAGPGGWNDPDMLVIGNFGLSWNQQVTQMALWAIMAAPLFMSNDLRHISPQAKALLQDKDVIAINQDPLGKQGYQLRQGDNFEVWERPLSGLAWAVAMINRQEIGGPRSYTIAVASLGKGVACNPACFITQLLPVKRKLGFYEWTSRLRSHINPTGTVLLQLENTMQMSLKDLL
B9: G128A (protein)
chain: MQLRNPELHLGCALALRFLALVSWDIPGARALDNGLARTPTMGWLHWERFMCNLDCQEEPDSCISEKLFMEMAELMVSEGWKDAGYEYLCIDDCWMAPQRDSEGRLQADPQRFPHGIRQLANYVHSKALKLGIYADVGNKTCAGFPGSFGYYDIDAQTFADWGVDLLKFDGCYCDSLENLADGYKHMSLALNRTGRSIVYSCEWPLYMWPFQKPNYTEIRQYCNHWRNFADIDDSWKSIKSILDWTSFNQERIVDVAGPGGWNDPDMLVIGNFGLSWNQQVTQMALWAIMAAPLFMSNDLRHISPQAKALLQDKDVIAINQDPLGKQGYQLRQGDNFEVWERPLSGLAWAVAMINRQEIGGPRSYTIAVASLGKGVACNPACFITQLLPVKRKLGFYEWTSRLRSHINPTGTVLLQLENTMQMSLKDLL

System: mutant form of α-Gal A expressed in HEK-293 cells
Experiment: HEK assay (GLP HEK / Migalastat Amenability Assay): α-Gal A activity in lysates of transiently transfected HEK-293 cells incubated with or without 10 μM migalastat
Assay type: cell-based, human
Conditions: for Absolute increase (% WT): 10 μM migalastat versus baseline; for Relative increase: 10 μM migalastat α-Gal A activity relative to baseline; for 10 μM migalastat α-Gal A activity (% WT): 5 days; for 10 μM migalastat α-Gal A activity (% WT) / Baseline α-Gal A activity (% WT): percentage of baseline wild-type α-Gal A activity; for 10 μM migalastat α-Gal A activity (% WT) / Baseline α-Gal A activity (% WT) / Baseline α-Gal A activity / 10 μM migalastat α-Gal A activity: mean ± SEM; for Baseline α-Gal A activity (% WT): absence of migalastat; for Baseline α-Gal A activity / 10 μM migalastat α-Gal A activity: lysates of HEK-293 cells transfected with the mutant form; for Baseline α-Gal A activity: incubated 5 days in the absence of migalastat; for 10 μM migalastat α-Gal A activity: incubated 5 days with 10 μM migalastat
Protocol: Such mutations or variants are also referred to herein as “HEK assay amenable” mutations or variants.
The α-Gal A activity is expressed as the nmoles of free 4-MU released per milligram of protein per hour (nmol/mg/hr).
In Table 7, values for the mean±standard error of the mean (SEM) were calculated. nmol/mg/hr indicates “nmoles of free 4-MU released per mg of protein per hour”. WT indicates “wild-type”. NC indicates “not calculable”. N/A indicates “not applicable”.

Molecule | Absolute increase (% WT) | Relative increase | 10 μM migalastat α-Gal A activity (% WT) | Baseline α-Gal A activity (% WT) | Baseline α-Gal A activity | 10 μM migalastat α-Gal A activity
B1 | 30.6 % WT | 1.4 | 111.3 ± 4.5 % WT | 80.7 ± 2 % WT | 32074 ± 1858 nmol/mg/h | 43288 ± 2179 nmol/mg/h
B2 | 16.4 % WT | 1.5 | 48.1 ± 4.5 % WT | 31.8 ± 3.3 % WT | 12614 ± 1265 nmol/mg/h | 19488 ± 1603 nmol/mg/h
B3 | 6.5 % WT | 3.3 | 8.8 ± 1.4 % WT | 2.3 ± 0.2 % WT | 995 ± 106 nmol/mg/h | 3282 ± 375 nmol/mg/h
B4 | 7.5 % WT | 1.4 | 24.5 ± 1.5 % WT | 16.9 ± 1.1 % WT | 7046 ± 488 nmol/mg/h | 10050 ± 554 nmol/mg/h
B5 | 6.4 % WT | 1.2 | 32.2 ± 2.3 % WT | 25.8 ± 1.1 % WT | 8968 ± 519 nmol/mg/h | 11003 ± 768 nmol/mg/h
B6 | 14.9 % WT | 1.4 | 48.4 ± 2.7 % WT | 33.5 ± 1.8 % WT | 14162 ± 994 nmol/mg/h | 20228 ± 1240 nmol/mg/h
B7 | 23.0 % WT | 1.6 | 59.1 ± 1.9 % WT | 36 ± 1.2 % WT | 14738 ± 699 nmol/mg/h | 24004 ± 987 nmol/mg/h
B8 | 16.0 % WT | 1.2 | 85.9 ± 5.3 % WT | 69.8 ± 5.1 % WT | 28685 ± 1923 nmol/mg/h | 35340 ± 2027 nmol/mg/h
B9 | 5.1 % WT | 1.2 | 25.9 ± 2.3 % WT | 20.8 ± 2 % WT | 8484 ± 872 nmol/mg/h | 10204 ± 703 nmol/mg/h
